According to patent publication US20120015347A1:

Columns and labels:
[1] = target: HEL-Dylight488 conjugate (hen egg lysozyme labeled with Dylight488) (chicken) (UniProt P00698); assay: microfluidic fluorescence bead assay; mAb captured on rabbit anti-mouse pAb Protein A beads, labeled antigen in flow
[2] = target: HEL-Dylight633 conjugate (hen egg lysozyme labeled with Dylight633) (chicken) (UniProt P00698); assay: as above
[3] = target: HEL-Dylight633 conjugate (hen egg lysozyme labeled with Dylight633) (chicken) (UniProt P00698); assay: microfluidic fluorescence bead assay; compared with D1.3 mAb on HEL

Substance	Kd [1]	Kd [2]	koff [2]	kon [2]	fold larger association rate constant than D1.3 mAb [3]	fold smaller dissociation rate constant than D1.3 mAb [3]	fold smaller equilibrium dissociation constant than D1.3 [3]
D1.3 mouse monoclonal antibody (mAb) to lysozyme	1.2 nM						
HyHEL-5 mouse monoclonal antibody to lysozyme		0.03 nM	0.000169 s⁻¹	5.75e+06 M⁻¹ s⁻¹	4 fold	10 fold	40 fold
